The results in this text go back to PMC5727500, “Paper-based MoS2 nanosheet-mediated FRET aptasensor for rapid malaria diagnosis”.

This data set has as its target Plasmodium lactate dehydrogenase (pLDH) (Plasmodium falciparum, UniProt Q27743 1-316). Description: FRET fluorescence recovery from MoS2 nanosheets on printer paper; 1 uM pLDH; 100 nM aptamer, 25 ug/mL MoS2 dried on printer paper; no recovery on lens, coffee filter, Whatman or Advantec paper; Aptamer buffer 20 mM Tris-HCl pH 8, 50 mM NaCl, 5 mM KCl, 5 mM MgCl2; pLDH in water, other proteins in 1x PBS; readings over 30 min; temperature not stated. Conditions: protein: recombinant; chain copies: 4; label: 3' FAM.

Chain of Plasmodium lactate dehydrogenase (pLDH) (Q27743 whole entry): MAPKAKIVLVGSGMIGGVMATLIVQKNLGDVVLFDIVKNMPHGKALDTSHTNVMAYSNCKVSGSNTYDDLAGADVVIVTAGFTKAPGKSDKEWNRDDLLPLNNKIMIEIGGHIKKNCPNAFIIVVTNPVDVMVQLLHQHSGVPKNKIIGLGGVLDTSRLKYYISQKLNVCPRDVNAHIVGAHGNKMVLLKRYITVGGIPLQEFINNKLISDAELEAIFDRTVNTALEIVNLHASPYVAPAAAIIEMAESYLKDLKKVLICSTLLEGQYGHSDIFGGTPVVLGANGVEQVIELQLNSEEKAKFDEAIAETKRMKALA

B1: pLDH aptamer (ssDNA)
DNA: GTTCGATTGGATTGTGCCGGAAGTGCTGGCTCGAAC
With B1, the binding result was “binds”.
